In US20230287125A1 (LEPU BIOPHARMA, published 2023):
Each block holds one binder with its values, some of them ahead of it.

How the values were obtained:
human PD-L1-Fc protein [1] = molecular target: T1, human PD-L1-Fc protein (human, UniProt Q9NZQ7 19-238); assay: receptor blocking ELISA: coated human PD-L1-Fc, blocked ligand biotin-labeled human PD-1-Fc (Bio-PD1), OD 450nm; lower right panel
T1 construct: coating antigen of the ELISAs; also called rhPD-L1-Fc; not shown: Fc
Experimental: (§1) Briefly, microtiter plates were coated with human PD-L1-Fc protein at 0.5 μg/ml in PBS, 100 μl/well at 4° C. overnight, then blocked with 150 μl/well of 1% BSA at 37° C. for 2 hours. […] The plates were washed with PBS/Tween and then incubated with Streptavidin-HRP for 10 mins at 37° C. After washing, the plates were developed with TMB substrate and analyzed by spectrophotometer at OD 450 nm.

human PD-L1-Fc protein [2] = molecular target: T1, human PD-L1-Fc protein; assay: ELISA, antibody titrated on coated human PD-L1-Fc, OD 450nm; upper right panel
human PD-L1-Fc protein [3] = molecular target: T1, human PD-L1-Fc protein; assay: receptor blocking ELISA: coated human PD-L1-Fc, blocked ligand biotin-labeled human CD80-Fc (Bio-CD80), OD 450nm; lower right panel
Experimental: as §1

[4] = molecular target: T2, human PD-L1-his tag protein (human, UniProt Q9NZQ7 19-238); assay: SPR (Biacore), affinity ranking, PDL1-His
T2 construct: also called human PD-L1-His protein; recombinant PD-L1 protein; not shown: his tag
T2 sequence (Q9NZQ7 19-238 limits assumed): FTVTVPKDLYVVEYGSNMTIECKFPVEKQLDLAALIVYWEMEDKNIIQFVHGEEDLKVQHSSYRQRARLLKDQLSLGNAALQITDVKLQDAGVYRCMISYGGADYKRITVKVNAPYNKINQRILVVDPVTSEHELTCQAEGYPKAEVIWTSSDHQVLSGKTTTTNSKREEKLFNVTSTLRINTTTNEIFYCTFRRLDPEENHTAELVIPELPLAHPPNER

[5] = molecular target: T2, human PD-L1-his tag protein; assay: SPR (Biacore T200), mAb captured on Protein A chip, PD-L1-his injected
Experimental: The binding of the humanized antibodies to recombinant PD-L1 protein (human PD-L1-his tag) was tested by Biacore using a capture method. […] A serial dilution of human PD-L1-his tag protein was injected over captured antibody for 2 mins at a flow rate of 30 μl/min. The antigen was allowed to dissociate for 1500 s. All the experiment were carried out on a Biacore T200.

[6] = molecular target: T3, human PD-L1 over-expressed on CHOK1 cells (human, UniProt Q9NZQ7 19-290); assay: flow cytometry (MFI) on PDL1-CHOK1 cells; lower right panel
T3 construct: whole, on cells; also called PDL1-CHOK1 cells
T3 sequence (Q9NZQ7 19-290): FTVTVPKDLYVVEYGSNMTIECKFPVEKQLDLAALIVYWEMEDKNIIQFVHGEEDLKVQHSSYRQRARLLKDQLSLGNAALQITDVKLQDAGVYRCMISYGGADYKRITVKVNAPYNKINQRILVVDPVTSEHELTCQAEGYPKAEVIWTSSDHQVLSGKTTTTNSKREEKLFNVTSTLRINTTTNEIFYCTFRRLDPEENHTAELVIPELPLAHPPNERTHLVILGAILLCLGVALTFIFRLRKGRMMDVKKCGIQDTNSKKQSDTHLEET
Experimental: (§2) To evaluate the antigen binding property, the humanized antibodies were analyzed for their binding to PD-L1 overexpressed on mammalian cells by FACS. Briefly, PDL1-CHOK1 cells were firstly incubated with 3-fold serious diluted humanized antibodies starting at 15 μg/ml at 4° C. for 40 mins. After washed by PBS, the Alexa Fluor® 647 AffiniPure Goat Anti-Human IgG (H+L) antibody was added to each well and incubated at 4° C. for 30 mins. The MFI of Alexa Fluor® 647 was evaluated by FACSCanto.

human PD-L1-Fc protein [7] = molecular target: T1, human PD-L1-Fc protein; assay: ELISA, antibody titrated on coated human PD-L1-Fc, OD 450nm; lower left panel (with Hu89C10H8-13 to -16)
Experimental: (§3) To evaluate antigen binding activity, the humanized antibodies were subjected to ELISA test. Briefly, microtiter plates were coated with human PD-L1-Fc protein at 0.5 μg/ml in PBS, 100 μl/well at 4° C. overnight, then blocked with 200 μl/well of 1% BSA. Three-fold dilutions of humanized antibodies starting from 10 μg/ml were added to each well and incubated for 1 hour at 37° C. The plates were washed with PBS/Tween and then incubated with mouse-anti-human IgG Fab antibody conjugated with Horse Radish Peroxidase (HRP) for 1 hour at 37° C. After washing, the plates were developed with TMB substrate and analyzed by spectrophotometer at OD 450 nm.

human PD-L1-Fc protein [8] = molecular target: T1, human PD-L1-Fc protein; assay: receptor blocking ELISA: coated human PD-L1-Fc, blocked ligand biotin-labeled human CD80-Fc (Bio-CD80), OD 450nm; lower right panel (with Hu89C10H8-12)
Experimental: as §1

human PD-L1-Fc protein [9] = molecular target: T1, human PD-L1-Fc protein; assay: competition ELISA, coated human PD-L1-Fc, biotin-labeled human PD-1-Fc as competitor
Experimental: as §1, with “BSA.” for “BSA at 37° C. for 2 hours.”

[10] = molecular target: T3, human PD-L1 over-expressed on CHOK1 …; assay: flow cytometry on PDL1-CHOK1 cells
Experimental: After washing by PBS, Alexa Fluor® 647 AffiniPure Goat Anti-Human IgG (H+L) was added to each well and incubated at 4° C. for 30 mins. Samples were washed twice with FACS buffer. The mean florescence intensity (MFI) of Alexa Fluor® 647 was evaluated by FACSCanto.

rat PD-L1 protein = rat PD-L1 protein (rat, UniProt D4AE25 19-239); assay: ELISA, coated rat PD-L1
Sequence of rat PD-L1 protein (D4AE25 entry or part of it limits assumed): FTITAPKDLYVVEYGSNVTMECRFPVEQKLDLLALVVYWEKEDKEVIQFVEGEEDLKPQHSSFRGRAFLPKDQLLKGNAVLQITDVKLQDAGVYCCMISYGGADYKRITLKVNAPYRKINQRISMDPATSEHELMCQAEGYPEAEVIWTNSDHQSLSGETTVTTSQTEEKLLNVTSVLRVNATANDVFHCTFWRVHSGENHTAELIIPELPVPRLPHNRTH
Experimental: (§4) ELISA testing was carried out to evaluate the binding of chimeric antibodies to human, mouse, rat, and cynomolgus PD-L1, respectively.
(§5) Briefly, microtiter plates were coated with human, mouse, rat and cynomolgus PD-L1 proteins at 0.5 μg/ml in PBS, 100 μl/well at 4° C. overnight, then blocked with 150 μl/well of 1% BSA. Three-fold dilutions of chimeric antibodies starting from 10 μg/ml were added to each well and incubated for 1 hour at 37° C. The plates were washed with PBS/Tween and then incubate with mouse-anti-human IgG Fab antibody conjugated with Horse Radish Peroxidase (HRP) for 30 mins at 37° C. After washing, the plates were developed with TMB substrate and analyzed by spectrophotometer at OD 450 nm.

human PD-L1-Fc protein [11] = molecular target: T1, human PD-L1-Fc protein; assay: ELISA, antibody titrated on coated human PD-L1-Fc, OD 450nm; upper left panel (with Hu89C10H8-1 to -6)
Experimental: as §3

human PD-L1-Fc protein [12] = molecular target: T1, human PD-L1-Fc protein; assay: receptor blocking ELISA: coated human PD-L1-Fc, blocked ligand biotin-labeled human PD-1-Fc (Bio-PD1), OD 450nm; upper left panel (with Hu89C10H8-4)
Experimental: as §1

human PD-L1-Fc protein [13] = molecular target: T1, human PD-L1-Fc protein; assay: ELISA, coated human PD-L1 (PD-L1-Fc per paragraph 110)
Experimental: as §1, with “1% BSA.” for “1% BSA at 37° C. for 2 hours.”, “with Mouse-anti-human IgG Fab antibody conjugated with Horse Radish Peroxidase (HRP)” for “with Streptavidin-HRP”, “for 30” for “for 10”
as §5

mouse PD-L1 protein = mouse PD-L1 protein (mouse, UniProt Q9EP73 19-239); assay: ELISA, coated mouse PD-L1
Sequence of mouse PD-L1 protein (Q9EP73 19-239 limits assumed): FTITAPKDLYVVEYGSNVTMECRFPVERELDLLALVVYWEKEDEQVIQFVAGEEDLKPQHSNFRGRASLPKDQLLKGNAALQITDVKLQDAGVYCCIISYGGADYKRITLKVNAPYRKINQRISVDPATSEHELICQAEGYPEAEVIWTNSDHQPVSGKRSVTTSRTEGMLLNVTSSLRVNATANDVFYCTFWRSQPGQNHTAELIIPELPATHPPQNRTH
Experimental: as §4, §5

[14] = molecular target: T3, human PD-L1 over-expressed on CHOK1 …; assay: flow cytometry (MFI) on PDL1-CHOK1 cells; lower right panel (with the Hu89C10H8 antibodies)
Experimental: as §2

cynomolgus PD-L1 protein = cynomolgus PD-L1 protein (cynomolgus, UniProt G7PSE7 19-238); assay: ELISA, coated cynomolgus PD-L1
Sequence of cynomolgus PD-L1 protein (G7PSE7 entry or part of it): as the sequence (Q9NZQ7 19-238 limits assumed) above, with A33T, A34S, S62N, R68Q, Q82R, F173L, T185A, T192I, H215L counted along it
Experimental: as §4, §5

[15] = molecular target: T2, human PD-L1-his tag protein; assay: SPR (Biacore T200), mAb captured on Protein A chip, PD-L1-his injected; remark: listed apart in the source
Experimental: A serial dilution of human PD-L1-his tag protein was injected over captured antibody for 2 mins at a flow rate of 30 μl/min. The antigen was allowed to dissociate for 480-1500 s. All the experiment were carried out on a Biacore T200. Data analysis was carried out using Biacore T200 evaluation software.

human PD-L1-Fc protein [16] = molecular target: T1, human PD-L1-Fc protein; assay: receptor blocking ELISA: coated human PD-L1-Fc, blocked ligand biotin-labeled human CD80-Fc (Bio-CD80), OD 450nm; upper right panel (with Hu89C10H8-7)
Experimental: as §1

human PD-L1-Fc protein [17] = molecular target: T1, human PD-L1-Fc protein; assay: receptor blocking ELISA: coated human PD-L1-Fc, blocked ligand biotin-labeled human CD80-Fc (Bio-CD80), OD 450nm; upper left panel (with Hu89C10H8-4)
Experimental: as §1

human PD-L1-Fc protein [18] = molecular target: T1, human PD-L1-Fc protein; assay: receptor blocking ELISA: coated human PD-L1-Fc, blocked ligand biotin-labeled human PD-1-Fc (Bio-PD1), OD 450nm; upper right panel (with Hu89C10H8-7)
Experimental: as §1

human PD-L1-Fc protein [19] = molecular target: T1, human PD-L1-Fc protein; assay: ELISA, antibody titrated on coated human PD-L1-Fc, OD 450nm; upper right panel (with Hu89C10H8-7 to -12)
Experimental: as §3

human PD-L1-Fc protein [20] = molecular target: T1, human PD-L1-Fc protein; assay: receptor blocking ELISA: coated human PD-L1-Fc, blocked ligand biotin-labeled human PD-1-Fc (Bio-PD1), OD 450nm; lower left panel (with Hu89C10H8-11)
Experimental: as §1

human PD-L1-Fc protein [21] = molecular target: T1, human PD-L1-Fc protein; assay: receptor blocking ELISA: coated human PD-L1-Fc, blocked ligand biotin-labeled human CD80-Fc (Bio-CD80), OD 450nm; lower left panel (with Hu89C10H8-11)
Experimental: as §1

T1 sequence (Q9NZQ7 19-238 limits assumed): as the sequence (Q9NZQ7 19-238 limits assumed) above

IC50 (human PD-L1-Fc protein [1]): 0.0891 µg/mL
EC50 (human PD-L1-Fc protein [2]): 0.00703 µg/mL
IC50 (human PD-L1-Fc protein [3]): 0.284 µg/mL
Kd [4]: 0.0968 nM
koff [4]: 7.04e-05 s⁻¹
kon [4]: 727000 M⁻¹ s⁻¹
Kd [5]: 0.0952 nM
koff [5]: 5.59e-05 s⁻¹
kon [5]: 587000 M⁻¹ s⁻¹
EC50 [6]: 0.131 nM
B1: Hu89C10H8-12 (antibody, V domains shown)
VH: EVQLVESGGGLVKPGGSLRLSCAASGFTFSNYWMTWIRQAPGKGLEWVASITNTGSSTFYPDSVKGRFTISRDNAKSSLYLQMNSLRAEDTAVYYCTRDTTIAPFDYWGQGTMVTVSS
VL: DIQMTQSPSSLSASVGDRVTITCKASQNLNEYLNWYQQKPGKAPKRLIYKTNTLQAGIPSRFSGSGSGIDYTLTISSLQPEDFATYYCSQYNSGNTFGQGTKLEIK
notes: humanized

EC50 (human PD-L1-Fc protein [7]): 0.0126 µg/mL
IC50 (human PD-L1-Fc protein [8]): 0.382 µg/mL
IC50 (human PD-L1-Fc protein [9]): 0.13 µg/mL
EC50 [10]: 0.17 nM
EC50 (human PD-L1-Fc protein [11]): 0.012 µg/mL
IC50 (human PD-L1-Fc protein [12]): 0.12 µg/mL
EC50 (human PD-L1-Fc protein [13]): 0.00811 µg/mL
EC50 [14]: 0.118 nM
EC50 (cynomolgus PD-L1 protein): 0.00677 µg/mL
Kd [15]: 0.0415 nM
koff [15]: 6.64e-05 s⁻¹
kon [15]: 1.6e+06 M⁻¹ s⁻¹
IC50 (human PD-L1-Fc protein [16]): 0.438 µg/mL
IC50 (human PD-L1-Fc protein [17]): 0.432 µg/mL
IC50 (human PD-L1-Fc protein [18]): 0.126 µg/mL
EC50 (human PD-L1-Fc protein [19]): 0.0157 µg/mL
IC50 (human PD-L1-Fc protein [20]): 0.133 µg/mL
IC50 (human PD-L1-Fc protein [21]): 0.434 µg/mL
B2: 89C10H8 chimeric mAb (antibody, V domains shown)
VH: EVQLVESGGGLVQPGRSLTLSCVASGFTFSNYWMTWIRQAPGKGLEWVASITNTGSSTFYPDSVKGRFTISRDNTRSTLFLQINSLRSEDTATYYCTRDTTIAPFDYWGQGVMVTVSS
VL: DIQMTQSPSFLSASVGDRVTITCKASQNLNEYLNWYQQKLGEAPKRLIYKTNTLQAGIPSRFSGSGSGIDYTLTISSLQPEDVATYFCSQYNSGNTFGAGTKLELK
notes: chimeric mAb of the hybridoma clone; also called 89C10H8-chimera
binding result (rat PD-L1 protein): no binding (tested: dilutions starting from 10 µg/ml)
binding result (mouse PD-L1 protein): no binding (tested: dilutions starting from 10 µg/ml)
